{
  "source": "patent US20210238281A1",
  "about": "(INSTITUT NATIONAL DE LA SANTE ET DE LA RECHERCHE MEDICALE …, published 2021)",
  "binders": {"B1": {"name": "anti-MOG MO4H-106 antibody (scFv, V domains shown)", "VH": "QVQLVQSGAEVKKPGASVKVSCKASGYTFTTYNIHWMRQAPGQSLEWMGWISTGNGDTEYSQKLQGSVTFTRDTSASTVYMDLNSLTPGDTAVYSCARESLFVSSWYADYWGQGTLVTVSS", "VL": "not shown"}, "B2": {"name": "anti-MOG MO3J-40 antibody (scFv, V domains shown)", "VH": "EVQLVESGAEVKKPGESLKISCKGSGYTFTSNWIGWVRQMPGKGLEWMGIIYPGDSDTRYSPSFQGQGTISADKSISTAYLQWSSLRASDTAMYYCARASIAVRPHIDYWGQGTLVTVSS", "VL": "not shown"}, "B3": {"name": "anti-MOG MO4H-118 antibody (scFv, V domains shown)", "VH": "EVQLVQSGAEVKKPGASVKVSCKVSGYTLTELSMHWVRQAPGKGLEWMGGFDPEDGETIYAQKFQGRVTMTEDTSTDTAYMELSSLRSEDTAVYYCATIGPKVAAHTYYFDYWGQGTLVTVSS", "VL": "DIQLTQSPSSLSASVGDRVTITCRASQTIVTYLNWYQQKPGKAPNLLITDASSLQSGVPSRFSGTESGTDFTLTISSLQPEDFGSYYCQSYMNPITFGQGTRLEIN"}, "B4": {"name": "anti-MOG MO3J-43 antibody (scFv, V domains shown)", "VH": "EVQLVESGGGLVKPGGSLRLSCAASGFTFSDYYMSWIRQAPGKGLEWVSYISSSGNTIYYADSVKGRFTISRDNAKNSLYLQMNSLRAEDTAVYYCAKDSPVPTVWGQGTLVTVSS", "VL": "QSVVTQPPSVSGAPGQRVSISCTGGSSNIGADYDVHWYQQLPGTAPKLLIYGNNNRPSGVPDRFSGSKSGTSASLAISGLQPEDEAVYYCQSYDSGLRSSVFGGGTKLTVL"}, "B5": {"name": "anti-MOG MO3I-56 antibody (scFv, V domains shown)", "VH": "QVQLVESGGGVVQPGSSLRLSCTASGFKFDDYAMHWVRQAPGKGLEWVSGISWNSGSIGYADSVKGRFTISRDNAKNSLYLQMNSLRAEDTASYYCAKSLPHYYDSPPYGMDVWGQGTLVTVSS", "VL": "DIQLTQSPSSLSASVGDRVTITCRASQGISSALAWYQQKPGKAPKLLIYDASSLESGVPSRFSGSGSGTDFTLTISSLQPEDFATYYCQHRGTFGGGTKVDIK"}, "B6": {"name": "anti-MOG MO3I-60 antibody (scFv, V domains shown)", "VH": "EVQLVESGGGLVKPGGSLGLSCAASGFTFTNAWGHWVRQAPGKGLEWVGRIKSKTDGGTTDYAAPVKDRFSISRDDSKNTLYLQMNSPTTEDTAVYYCATENGMDIVTTFDSWGQGTLVTVSS", "VL": "AIRMTQSPSSLSASVGDRVTITCRASQSIGSYLSWYRQKPGKAPKLLIYDSSTLQSGVASRFSGSGSGTDFTLTISALQPEDFATYYCHQSYRTPLSFGGGTKVEIK"}, "B7": {"name": "anti-MOG MO3I-33 antibody (scFv, V domains shown)", "VH": "DQVQLVQSGAEVKPGATVKISCKVSGYTFTDYYMHWVQQAPGKGLEWMGLVDPEDGETIYAEKFQGRVTITADTSTDTAYMELSSLRSEDTAVYYCATSYHGTSGFDYWGQGTLVTVSS", "VL": "QSVVTQPPSVSGAPGQRVTIACTGSNSDIGAGHDVHWYQQFPRTAPKLIIFGNTNRPSGVPDRFSGSKSGTSASLVITGLQADDEADYHCQSYDNNLSGPIFGGGTKLTVL"}, "B8": {"name": "anti-MOG MO3J-52 antibody (scFv, V domains shown)", "VH": "QMQLVQSGAEVKKPGSSVKVSCKASGGTFSSYAISWVRQAPGQGLEWMGGIIPIFGTANYAQKFQGRVTITADESTSTAYMELSSLRSEDTAVYYCARAREGLLVNYYGMDVWGQGTLVTVSS", "VL": "DIQMTQSPSTLSASVGDRVTTTCRASQGISNYLAWFQQKPGKAPKSLIYAASSLQSGVPSRFSGGGSGTDFTLTINSLQPEDFATYYCLHDYNYPTFGQGTKVEIK"}, "B9": {"name": "anti-MOG MO3I-69 antibody (scFv, V domains shown)", "VH": "DQVQLVQSGAEVKPGASVKVSCKASGYTFTYYYLHWVRQAPGQGLEWMGWINPNSGATIFAQKFQGRVTLTRDTSISTAYLDLSRLRSDDTAVYYCARASMAYQYHSDVDYWGLGTLVTVSS", "VL": "QSVLTQPPSVSGAPGQRVTISCTGSSSNIGAGYDVHWYQQLPGTAPKLLIYGNSNRPSGVPDRFSGSKSGTSASLAITGLQAEDEADYYCQSYDSSLVVFGGGTKLTVL"}, "B10": {"name": "anti-MOG MO3J-51 antibody (scFv, V domains shown)", "VH": "EVQLVQSGAEVKKPGASVKVSCKASGYTFTSYGISWVRQAPGQGLEWMGWISAYNGNTNYAQKLQGRVTMTTDTSTSTAYMELRSLGSDDTAVYYCARNMGCSSTSCFVSWFDPWGQGTLVTVSS", "VL": "QSVLTQPPSVSAAPGRKVTISCSGSSSNIGNNYVAWYQQLPGTAPKLLIYENNKRPSGIPGRFSGSKSATSATLGITGLQTGDEADYYCGTWDNSLSAWVFGGGTKLTVL"}, "B11": {"name": "anti-MOG MO3J-38 antibody (scFv, V domains shown)", "VH": "QVQLVQSGPEVRKPGASVKVSCRASGYTFTSNDINWVRQAAGQGLEYLGWLHPKSGGTGYAQKFQGRVTMTRDTSISTAYLELSNLTSDDTAVYYCARVSFDEVIDFWGQGTLVTVSS", "VL": "not shown"}, "B12": {"name": "anti-MOG MO3I-57 antibody (scFv, V domains shown)", "VH": "QVQLVQSGAEVKKPGASVKVSCKASGYTFSSYGISWVRQAPGQGLEWMGWISANTGNTDYAERLQGRVTMTTDTSTTTAYMELRSLRSDDTAVYYCARGAPNGYAVDYWGQGTLVTVSS", "VL": "QSVLTQPPSASGAPGQRVSISCSGSSSNIGTNHVYWYQQFTGMAPKLIIDTNNQRPPGVPARFSGSKSGTSASLAISGLRSEDESDYYCLTWDDGLYDWVFGGGTKLTVL"}, "B13": {"name": "anti-MOG MO3I-30 antibody (scFv, V domains shown)", "VH": "EVQLLESGGGLVQPGGSLRLSCVASGFTFRSYWMHWVRQDPGEGLVWVSRVSGDGSSTNYADSVKGRFVISRDNAKDTLYLQMYSLRGEDTAVYYCLRGNDGYGNFDYWGQGTTVTVSS", "VL": "DVVMTQSPLSLPVTLGQPASISCRPSQSLVYSDGNTYLNWFQQRPGQSPRRLIYKVSNRDYVVPDRFSGSGSGTDFTLKISRVEAEDVGVYYCMQGTHWPLTFGGGTKVEIK"}, "B14": {"name": "anti-MOG MO3J-44 antibody (scFv, V domains shown)", "VH": "QVQLVQSGAEVRKPGASVKISCQISGYNFISYTIQWVRQAPGQRPEWMGWINSGNGNTKYSQKFQGRVTFTRDTSTSTAYMELSSLRSEDTAVYYCARSGIGPWGQGTLVTVSS", "VL": "EIVLTQPPDLQSVTPKKKVTITCRASQSIGNSLHWCQQKPDQSPKLLIKYASQSISGVPSRFSGSGSGTDFTLTINSLEAEDAATYYCHQSSSLPFTFGPGTKVDIK"}, "B15": {"name": "anti-MOG MO3I-63 antibody (scFv, V domains shown)", "VH": "QVQLVQSGAEVKTPGASVKISCKASGYAFTSYAMHWVRAPGQGLEWMGWINAANANTKYSQRFQGRVTITRDTSASTAYMELNSLRSEDTAVYYCASSEDISRSNYYNYYMDVWGKGTTVTVSS", "VL": "DIVMTQSPSSLSASVGDRVTITCRASQTITTSLAWFQHRPGKAPKLLIYSASSLQSGVPSRFSGSGSGTDFTLTISSLQPEDFATYSCQQTYSAPPTFGGGTKVEIK"}},
  "data": [
    {"target": "T1, recombinant murine MOG protein (murine, UniProt Q61885 29-156, limits assumed)", "T1 construct": "Bought recombinant protein; also called MMOG", "T1 sequence (looked up)": "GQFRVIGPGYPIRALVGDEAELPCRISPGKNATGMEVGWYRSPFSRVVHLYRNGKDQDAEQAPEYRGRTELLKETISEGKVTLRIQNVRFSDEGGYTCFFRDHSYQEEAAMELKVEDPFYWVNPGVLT", "assay": "phage-scFv ELISA on coated recombinant murine MOG (0.5 µg/well), anti-M13 HRP, OD450 over BSA background", "protocol": "(§1) The binding characteristics of the scFvs expressed on the surface of the phages isolated during the screening were determined using an ELISA assay using the recombinant MOG protein (R&D system). Along with the selected clones, phage-scFv-8-18C5 is expressed to serve as a positive control for ELISA. Briefly, phage-scFv were produced in the form of clones isolated on a 96-well plate in 800 μl of 2YT/ampicillin/glucose cultures infected with the helper phage M13K07 (as described previously). The phages produced overnight at 26° C. were then recovered in the supernatants after 30 minutes of centrifugation at 3000 g. These supernatants were directly diluted 1/2 in PBS/4% BSA/0.1% Tween 20 and tested on Maxisorp immunoplates previously coated with 0.5 μg of human or murine MOG or PBS (background control (bdf) in BSA)/well and blocked with 4% BSA in PBS. After incubation for 2 hours at 37° C., the wells were washed 3 times with PBS/0.1% Tween-20 and bound phages-scfv were detected with anti-M13 HRP antibody (GE Healthcare). The plate is read at 450 nm (OD) on a plate reader (TECAN). The results are expressed as a ratio: OD on target/OD bdf (OD on an uncoated plate saturated with BSA) and the ratios are compared with that obtained for the positive control.", "units": {"ratio OD on target/OD bdf": "ratio"}, "values": [
      {"binder": "B1", "ratio OD on target/OD bdf": 2.78},
      {"binder": "B2", "ratio OD on target/OD bdf": 6.48},
      {"binder": "B3", "ratio OD on target/OD bdf": 4.01},
      {"binder": "B4", "ratio OD on target/OD bdf": 8.26},
      {"binder": "B5", "ratio OD on target/OD bdf": 2.29},
      {"binder": "B6", "ratio OD on target/OD bdf": 2.75},
      {"binder": "B7", "ratio OD on target/OD bdf": 2.52},
      {"binder": "B8", "ratio OD on target/OD bdf": 6.86},
      {"binder": "B9", "ratio OD on target/OD bdf": 2.76},
      {"binder": "B10", "ratio OD on target/OD bdf": 4.76},
      {"binder": "B11", "ratio OD on target/OD bdf": 5.59},
      {"binder": "B12", "ratio OD on target/OD bdf": 2.77},
      {"binder": "B13", "ratio OD on target/OD bdf": 2.19},
      {"binder": "B14", "ratio OD on target/OD bdf": 6.61},
      {"binder": "B15", "ratio OD on target/OD bdf": 5.55}
    ]},
    {"target": "T2, recombinant human MOG protein (human, UniProt Q16653 30-154, limits assumed)", "T2 construct": "Bought recombinant protein; also called HMOG", "T2 sequence (looked up)": "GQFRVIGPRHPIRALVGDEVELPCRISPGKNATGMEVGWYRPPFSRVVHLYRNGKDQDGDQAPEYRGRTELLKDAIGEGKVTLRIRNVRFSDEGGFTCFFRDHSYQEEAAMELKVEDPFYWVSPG", "assay": "phage-scFv ELISA on coated recombinant human MOG (0.5 µg/well), anti-M13 HRP, OD450 over BSA background", "protocol": "as §1", "units": {"ratio OD on target/OD bdf": "ratio"}, "values": [
      {"binder": "B1", "ratio OD on target/OD bdf": 2.55},
      {"binder": "B2", "ratio OD on target/OD bdf": 21},
      {"binder": "B3", "ratio OD on target/OD bdf": 2.04},
      {"binder": "B4", "ratio OD on target/OD bdf": 20.8},
      {"binder": "B5", "ratio OD on target/OD bdf": 2.29},
      {"binder": "B6", "ratio OD on target/OD bdf": 2.09},
      {"binder": "B7", "ratio OD on target/OD bdf": 2.53},
      {"binder": "B8", "ratio OD on target/OD bdf": 16.3},
      {"binder": "B9", "ratio OD on target/OD bdf": 2.26},
      {"binder": "B10", "ratio OD on target/OD bdf": 14.6},
      {"binder": "B11", "ratio OD on target/OD bdf": 18.4},
      {"binder": "B12", "ratio OD on target/OD bdf": 2.44},
      {"binder": "B13", "ratio OD on target/OD bdf": 2.86},
      {"binder": "B14", "ratio OD on target/OD bdf": 14.5},
      {"binder": "B15", "ratio OD on target/OD bdf": 2.66}
    ]}
  ]
}
